Our source for the KD of the high affinity component values is paper PMC2192206.

This assay has as its target lymphocyte function associated-1 (LFA-1, CD11a/CD18) (UniProt P20701). As to the kind of experiment: radioligand binding.

Sequence of lymphocyte function associated-1 (LFA-1, CD11a/CD18) (P20701 26-1170, chain 1 of 2): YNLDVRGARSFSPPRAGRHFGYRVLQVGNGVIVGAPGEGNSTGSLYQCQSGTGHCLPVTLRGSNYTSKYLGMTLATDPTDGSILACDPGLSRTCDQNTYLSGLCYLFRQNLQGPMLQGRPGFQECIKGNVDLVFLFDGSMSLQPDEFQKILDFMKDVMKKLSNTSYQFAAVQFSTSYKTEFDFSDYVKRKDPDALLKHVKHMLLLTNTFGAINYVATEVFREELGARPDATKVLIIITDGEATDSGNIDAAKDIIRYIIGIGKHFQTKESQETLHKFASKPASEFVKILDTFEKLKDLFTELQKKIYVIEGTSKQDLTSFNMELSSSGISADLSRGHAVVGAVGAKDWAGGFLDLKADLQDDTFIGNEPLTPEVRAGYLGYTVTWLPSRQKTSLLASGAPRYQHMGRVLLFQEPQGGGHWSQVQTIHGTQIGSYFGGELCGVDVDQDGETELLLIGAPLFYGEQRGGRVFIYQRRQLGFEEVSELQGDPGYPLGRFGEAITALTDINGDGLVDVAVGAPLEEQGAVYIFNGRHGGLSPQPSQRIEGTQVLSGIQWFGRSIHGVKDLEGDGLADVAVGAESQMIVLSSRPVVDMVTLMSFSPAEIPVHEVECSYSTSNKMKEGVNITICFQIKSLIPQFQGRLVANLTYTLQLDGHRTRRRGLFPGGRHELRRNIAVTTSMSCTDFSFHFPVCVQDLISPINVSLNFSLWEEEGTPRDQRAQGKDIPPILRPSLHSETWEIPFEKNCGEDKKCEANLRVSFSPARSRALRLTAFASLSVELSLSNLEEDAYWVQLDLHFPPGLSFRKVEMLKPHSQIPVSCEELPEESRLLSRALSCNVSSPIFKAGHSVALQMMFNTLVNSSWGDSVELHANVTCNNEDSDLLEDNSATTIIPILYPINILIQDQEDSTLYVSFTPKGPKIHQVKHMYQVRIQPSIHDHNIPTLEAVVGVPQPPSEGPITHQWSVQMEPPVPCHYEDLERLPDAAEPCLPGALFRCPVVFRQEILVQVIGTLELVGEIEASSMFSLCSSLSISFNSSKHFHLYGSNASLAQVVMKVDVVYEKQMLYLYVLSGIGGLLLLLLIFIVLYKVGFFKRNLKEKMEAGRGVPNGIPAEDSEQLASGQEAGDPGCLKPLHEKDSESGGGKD
Sequence of lymphocyte function associated-1 (LFA-1, CD11a/CD18) (P05107 23-769, chain 2 of 2, further chain): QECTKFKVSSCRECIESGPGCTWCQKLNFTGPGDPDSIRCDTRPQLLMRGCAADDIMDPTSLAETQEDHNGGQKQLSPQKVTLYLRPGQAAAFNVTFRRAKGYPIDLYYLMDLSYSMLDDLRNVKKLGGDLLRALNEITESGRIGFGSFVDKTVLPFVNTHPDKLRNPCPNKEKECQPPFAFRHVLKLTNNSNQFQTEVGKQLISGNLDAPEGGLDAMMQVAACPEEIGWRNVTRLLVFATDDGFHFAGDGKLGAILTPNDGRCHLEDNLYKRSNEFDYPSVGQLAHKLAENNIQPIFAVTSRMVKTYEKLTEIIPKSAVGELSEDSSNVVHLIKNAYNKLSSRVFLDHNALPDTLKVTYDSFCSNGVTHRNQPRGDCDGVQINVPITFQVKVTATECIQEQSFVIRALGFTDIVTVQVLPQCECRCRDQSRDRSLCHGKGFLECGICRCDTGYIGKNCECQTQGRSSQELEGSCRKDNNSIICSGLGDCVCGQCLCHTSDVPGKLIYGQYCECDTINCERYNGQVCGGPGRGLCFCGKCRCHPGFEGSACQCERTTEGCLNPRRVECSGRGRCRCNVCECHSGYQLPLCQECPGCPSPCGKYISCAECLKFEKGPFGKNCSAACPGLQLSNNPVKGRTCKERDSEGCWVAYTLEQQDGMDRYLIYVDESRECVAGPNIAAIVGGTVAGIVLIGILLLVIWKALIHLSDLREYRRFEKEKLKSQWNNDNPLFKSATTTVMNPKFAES

With “ICAM-1-HA dimer (from UniProt P05362 28-480) (complex)”, the KD of the high affinity component was found to be 8 nM.
